# Results as given in PMC11574045, “A cofactor-induced repressive type of transcription factor condensation can be induced by synthetic peptides to suppress tumorigenesis” (The EMBO Journal, 2024).
# System: HEK293FT cells transfected with TF library
# Assay: Screening of TF condensates based on fluorescent puncta
# Assay type: cell-based
# Details: Figure 1B numerical data; TF library screen, one value per transcriptional factor
# How it was run: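 TF plasmids (final 1.6 μg/ml) reverse-transfected with PEI (4.8 μg/ml) into HEK293FT cells; after 60 h, cells cultured ±glucose for 12 h, fixed in 4% PFA and immunostained for Flag or GAL4 tags with Alexa 488 secondaries. Puncta scored by automated imaging of 50 random fields per well.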
row,Molecule,Z score of condensed fraction
1,"GTF2A1L (protein, UniProt Q9UNN4 1-478, looked up) TFIIA-alpha and beta-like …: MACLNPVPKLYRSVIEDVIEGVRNLFAEEGIEEQVLKDLKQLWETKVLQSKATEDFFRNSIQSPLFTLQLPHSLHQTLQSSTASLVIPAGRTLPSFTTAELGTSNSSANFTFPGYPIHVPAGVTLQTVSGHLYKVNVPIMVTETSGRAGILQHPIQQVFQQLGQPSVIQTSVPQLNPWSLQATTEKSQRIETVLQQPAILPSGPVDRKHLENATSDILVSPGNEHKIVPEALLCHQESSHYISLPGVVFSPQVSQTNSNVESVLSGSASMAQNLHDESLSTSPHGALHQHVTDIQLHILKNRMYGCDSVKQPRNIEEPSNIPVSEKDSNSQVDLSIRVTDDDIGEIIQVDGSGDTSSNEEIGSTRDADENEFLGNIDGGDLKVPEEEADSISNEDSATNSSDNEDPQVNIVEEDPLNSGDDVSEQDVPDLFDTDNVIVCQYDKIHRSKNKWKFYLKDGVMCFGGRDYVFAKAIGDAEW",3.206
2,"GTF2I (protein, UniProt P78347 2-998, looked up) General transcription factor …: AQVAMSTLPVEDEESSESRMVVTFLMSALESMCKELAKSKAEVACIAVYETDVFVVGTERGRAFVNTRKDFQKDFVKYCVEEEEKAAEMHKMKSTTQANRMSVDAVEIETLRKTVEDYFCFCYGKALGKSTVVPVPYEKMLRDQSAVVVQGLPEGVAFKHPENYDLATLKWILENKAGISFIIKRPFLEPKKHVGGRVMVTDADRSILSPGGSCGPIKVKTEPTEDSGISLEMAAVTVKEESEDPDYYQYNIQAGPSETDDVDEKQPLSKPLQGSHHSSEGNEGTEMEVPAEDSTQHVPSETSEDPEVEVTIEDDDYSPPSKRPKANELPQPPVPEPANAGKRKVREFNFEKWNARITDLRKQVEELFERKYAQAIKAKGPVTIPYPLFQSHVEDLYVEGLPEGIPFRRPSTYGIPRLERILLAKERIRFVIKKHELLNSTREDLQLDKPASGVKEEWYARITKLRKMVDQLFCKKFAEALGSTEAKAVPYQKFEAHPNDLYVEGLPENIPFRSPSWYGIPRLEKIIQVGNRIKFVIKRPELLTHSTTEVTQPRTNTPVKEDWNVRITKLRKQVEEIFNLKFAQALGLTEAVKVPYPVFESNPEFLYVEGLPEGIPFRSPTWFGIPRLERIVRGSNKIKFVVKKPELVISYLPPGMASKINTKALQSPKRPRSPGSNSKVPEIEVTVEGPNNNNPQTSAVRTPTQTNGSNVPFKPRGREFSFEAWNAKITDLKQKVENLFNEKCGEALGLKQAVKVPFALFESFPEDFYVEGLPEGVPFRRPSTFGIPRLEKILRNKAKIKFIIKKPEMFETAIKESTSSKSPPRKINSSPNVNTTASGVEDLNIIQVTIPDDDNERLSKVEKARQLREQVNDLFSRKFGEAIGMGFPVKVPYRKITINPGCVVVDGMPPGVSFKAPSYLEISSMRRILDSAEFIKFTVIRPFPGLVINNQLVDQSESEGPVIQESAEPSQLEVPATEEIKETDGSSQIKQEPDPTW",0.02684
3,"GTF2IRD1 (protein, UniProt Q9UHL9 1-959, looked up) General transcription factor …: MALLGKRCDVPTNGCGPDRWNSAFTRKDEIITSLVSALDSMCSALSKLNAEVACVAVHDESAFVVGTEKGRMFLNARKELQSDFLRFCRGPPWKDPEAEHPKKVQRGEGGGRSLPRSSLEHGSDVYLLRKMVEEVFDVLYSEALGRASVVPLPYERLLREPGLLAVQGLPEGLAFRRPAEYDPKALMAILEHSHRIRFKLKRPLEDGGRDSKALVELNGVSLIPKGSRDCGLHGQAPKVPPQDLPPTATSSSMASFLYSTALPNHAIRELKQEAPSCPLAPSDLGLSRPMPEPKATGAQDFSDCCGQKPTGPGGPLIQNVHASKRILFSIVHDKSEKWDAFIKETEDINTLRECVQILFNSRYAEALGLDHMVPVPYRKIACDPEAVEIVGIPDKIPFKRPCTYGVPKLKRILEERHSIHFIIKRMFDERIFTGNKFTKDTTKLEPASPPEDTSAEVSRATVLDLAGNARSDKGSMSEDCGPGTSGELGGLRPIKIEPEDLDIIQVTVPDPSPTSEEMTDSMPGHLPSEDSGYGMEMLTDKGLSEDARPEERPVEDSHGDVIRPLRKQVELLFNTRYAKAIGISEPVKVPYSKFLMHPEELFVVGLPEGISLRRPNCFGIAKLRKILEASNSIQFVIKRPELLTEGVKEPIMDSQGTASSLGFSPPALPPERDSGDPLVDESLKRQGFQENYDARLSRIDIANTLREQVQDLFNKKYGEALGIKYPVQVPYKRIKSNPGSVIIEGLPPGIPFRKPCTFGSQNLERILAVADKIKFTVTRPFQGLIPKPDEDDANRLGEKVILREQVKELFNEKYGEALGLNRPVLVPYKLIRDSPDAVEVTGLPDDIPFRNPNTYDIHRLEKILKAREHVRMVIINQLQPFAEICNDAKVPAKDSSIPKRKRKRVSEGNSVSSSSSSSSSSSSNPDSVASANQISLVQWPMYMVDYAGLNVQLPGPLNY",-0.874
4,"HAND1 (protein, UniProt O96004 1-215, looked up) Heart- and neural crest …: MNLVGSYAHHHHHHHPHPAHPMLHEPFLFGPASRCHQERPYFQSWLLSPADAAPDFPAGGPPPAAAAAATAYGPDARPGQSPGRLEALGGRLGRRKGSGPKKERRRTESINSAFAELRECIPNVPADTKLSKIKTLRLATSYIAYLMDVLAKDAQSGDPEAFKAELKKADGGRESKRKRELQQHEGFPPALGPVEKRIKGRTGWPQQVWALELNQ",-0.3888
5,"HDAC11 (protein, UniProt Q96DB2 1-347, looked up) Histone deacetylase 11: MLHTTQLYQHVPETRWPIVYSPRYNITFMGLEKLHPFDAGKWGKVINFLKEEKLLSDSMLVEAREASEEDLLVVHTRRYLNELKWSFAVATITEIPPVIFLPNFLVQRKVLRPLRTQTGGTIMAGKLAVERGWAINVGGGFHHCSSDRGGGFCAYADITLAIKFLFERVEGISRATIIDLDAHQGNGHERDFMDDKRVYIMDVYNRHIYPGDRFAKQAIRRKVELEWGTEDDEYLDKVERNIKKSLQEHLPDVVVYNAGTDILEGDRLGGLSISPAGIVKRDELVFRMVRGRRVPILMVTSGGYQKRTARIIADSILNLFGLGLIGPESPSVSAQNSDTPLLPPAVP",0.2732
6,"HDAC8 (protein, UniProt Q9BY41 1-377, looked up) Histone deacetylase 8: MEEPEEPADSGQSLVPVYIYSPEYVSMCDSLAKIPKRASMVHSLIEAYALHKQMRIVKPKVASMEEMATFHTDAYLQHLQKVSQEGDDDHPDSIEYGLGYDCPATEGIFDYAAAIGGATITAAQCLIDGMCKVAINWSGGWHHAKKDEASGFCYLNDAVLGILRLRRKFERILYVDLDLHHGDGVEDAFSFTSKVMTVSLHKFSPGFFPGTGDVSDVGLGKGRYYSVNVPIQDGIQDEKYYQICESVLKEVYQAFNPKAVVLQLGADTIAGDPMCSFNMTPVGIGKCLKYILQWQLATLILGGGGYNLANTARCWTYLTGVILGKTLSSEIPDHEFFTAYGPDYVLEITPSCRPDRNEPHRIQQILNYIKGNLKHVV",0.9737
7,"HELIOS (protein, UniProt Q9UKS7 1-526, looked up) Zinc finger protein Helios: METEAIDGYITCDNELSPEREHSNMAIDLTSSTPNGQHASPSHMTSTNSVKLEMQSDEECDRKPLSREDEIRGHDEGSSLEEPLIESSEVADNRKVQELQGEGGIRLPNGKLKCDVCGMVCIGPNVLMVHKRSHTGERPFHCNQCGASFTQKGNLLRHIKLHSGEKPFKCPFCSYACRRRDALTGHLRTHSVGKPHKCNYCGRSYKQRSSLEEHKERCHNYLQNVSMEAAGQVMSHHVPPMEDCKEQEPIMDNNISLVPFERPAVIEKLTGNMGKRKSSTPQKFVGEKLMRFSYPDIHFDMNLTYEKEAELMQSHMMDQAINNAITYLGAEALHPLMQHPPSTIAEVAPVISSAYSQVYHPNRIERPISRETADSHENNMDGPISLIRPKSRPQEREASPSNSCLDSTDSESSHDDHQSYQGHPALNPKRKQSPAYMKEDVKALDTTKAPKGSLKDIYKVFNGEGEQIRAFKCEHCRVLFLDHVMYTIHMGCHGYRDPLECNICGYRSQDRYEFSSHIVRGEHTFH",-0.5188
8,"APBB1 (protein, UniProt O00213 1-710, looked up) Amyloid beta precursor …: MSVPSSLSQSAINANSHGGPALSLPLPLHAAHNQLLNAKLQATAVGPKDLRSAMGEGGGPEPGPANAKWLKEGQNQLRRAATAHRDQNRNVTLTLAEEASQEPEMAPLGPKGLIHLYSELELSAHNAANRGLRGPGLIISTQEQGPDEGEEKAAGEAEEEEEDDDDEEEEEDLSSPPGLPEPLESVEAPPRPQALTDGPREHSKSASLLFGMRNSAASDEDSSWATLSQGSPSYGSPEDTDSFWNPNAFETDSDLPAGWMRVQDTSGTYYWHIPTGTTQWEPPGRASPSQGSSPQEESQLTWTGFAHGEGFEDGEFWKDEPSDEAPMELGLKEPEEGTLTFPAQSLSPEPLPQEEEKLPPRNTNPGIKCFAVRSLGWVEMTEEELAPGRSSVAVNNCIRQLSYHKNNLHDPMSGGWGEGKDLLLQLEDETLKLVEPQSQALLHAQPIISIRVWGVGRDSGRERDFAYVARDKLTQMLKCHVFRCEAPAKNIATSLHEICSKIMAERRNARCLVNGLSLDHSKLVDVPFQVEFPAPKNELVQKFQVYYLGNVPVAKPVGVDVINGALESVLSSSSREQWTPSHVSVAPATLTILHQQTEAVLGECRVRFLSFLAVGRDVHTFAFIMAAGPASFCCHMFWCEPNAASLSEAVQAACMLRYQKCLDARSQASTSCLPAPPAESVARRVGWTVRRGVQSLWGSLKPKRLGAHTP",2.844
9,"HELT (protein, UniProt A6NFD8 1-242, looked up) Hairy and enhancer of …: MSDKLKERKRTPVSHKVIEKRRRDRINRCLNELGKTVPMALAKQSSGKLEKAEILEMTVQYLRALHSADFPRGREKAELLAEFANYFHYGYHECMKNLVHYLTTVERMETKDTKYARILAFLQSKARLGAEPAFPPLGSLPEPDFSYQLHPAGPEFAGHSPGEAAVFPQGSGAGPFPWPPGAARSPALPYLPSAPVPLASPAQQHSPFLTPVQGLDRHYLNLIGHAHPNALNLHTPQHPPVL",-0.4669
10,"HES1 (protein, UniProt Q14469 1-280, looked up) Transcription factor HES-1: MPADIMEKNSSSPVAATPASVNTTPDKPKTASEHRKSSKPIMEKRRRARINESLSQLKTLILDALKKDSSRHSKLEKADILEMTVKHLRNLQRAQMTAALSTDPSVLGKYRAGFSECMNEVTRFLSTCEGVNTEVRTRLLGHLANCMTQINAMTYPGQPHPALQAPPPPPPGPGGPQHAPFAPPPPLVPIPGGAAPPPGGAPCKLGSQAGEAAKVFGGFQVVPAPDGQFAFLIPNGAFAHSGPVIPVYTSNSGTSVGPNAVSPSSGPSLTADSMWRPWRN",-0.8248
11,"HES2 (protein, UniProt Q9Y543 1-173, looked up) Transcription factor HES-2: MGLPRRAGDAAELRKSLKPLLEKRRRARINQSLSQLKGLILPLLGRENSNCSKLEKADVLEMTVRFLQELPASSWPTAAPLPCDSYREGYSACVARLARVLPACRVLEPAVSARLLEHLWRRAASATLDGGRAGDSSGPSAPAPAPASAPEPASAPVPSPPSPPCGPGLWRPW",-1.172
12,"HES3 (protein, UniProt Q61657 1-175, looked up) Transcription factor HES-3: MEKKRRARINVSLEQLRSLLERHYSHQIRKRKLEKADILELSVKYMRSLQNSLQGLWPVPSGVDYPSGFQGGLRGVSQRLRPGEGDSGLRCPLLLQRREGSTTDSANPQATSVLNPCLPAIWAPSRAAGGSHSPQSPLPLPGGLLESSTDVVAPHPASNCQAESTRPGFRVWRPW",-1.103
